Laboratory results as given in US20220064276A1 (SCHOLAR ROCK, published 2022).
Blank lines part the entries; values can stand above or below the binder they belong to.

Tests used:
[1] = target: T1, human GARP-proTGFβ1 complex (human, UniProt Q14392 18-627; P01137 30-390, limits assumed); experiment: SPR Biacore 8K, Fab up to 100 nM over captured antigen
T1 construct: Exemplary entries; also called Hu GARP-proTGFβ1; huGARP proTGFb1
Procedure: (§1) A Biacore 8K system was employed to determine the monovalent binding affinity and the kinetic parameters for antigen binding of test antibodies. Association and dissociation kinetics of Fab fragments SR-AB42-HuFab, SR-AB63-HuFab and SR-AB43-HuFab to antigen complexes were measured, and resulting ka, kd and KD are provided below. Briefly, the binding kinetics were evaluated by surface plasmon resonance using Biacore 8K (GE Healthcare). Biotinylated capture antigens were immobilized to the chip (10 nM, ˜200 RU loading). A Biotin CAPture sensor chip was used to capture the biotinylated antigens. […] 0 nM was used as a reference. […] 0 nM was used as a reference. Multi-cycle kinetics was employed where each analyte concentration was injected in a separate cycle and the sensor chip surface was regenerated after each cycle. A11 the assays were carried out in freshly prepared 1× HBS-EP+ buffer (10 mM HEPES, 150 mM NaCl, 3 mM EDTA, 0.05% Tween20, pH 7.4). Data were fit globally to a 1:1 binding model to obtain the kinetic parameters. The sensorgram for 0 nM analyte concentration was used as reference.

[2] = target: T2, human LRRC33-proTGFβ1 complex (human, UniProt Q86YC3 19-650; P01137 30-390, limits assumed); experiment: as above
T2 construct: Exemplary entries; also called huLRRC33 proTGFb1; HuLRRC33-ProTGFb1
T2 sequence (Q86YC3 19-650 limits assumed, chain 1 of 2): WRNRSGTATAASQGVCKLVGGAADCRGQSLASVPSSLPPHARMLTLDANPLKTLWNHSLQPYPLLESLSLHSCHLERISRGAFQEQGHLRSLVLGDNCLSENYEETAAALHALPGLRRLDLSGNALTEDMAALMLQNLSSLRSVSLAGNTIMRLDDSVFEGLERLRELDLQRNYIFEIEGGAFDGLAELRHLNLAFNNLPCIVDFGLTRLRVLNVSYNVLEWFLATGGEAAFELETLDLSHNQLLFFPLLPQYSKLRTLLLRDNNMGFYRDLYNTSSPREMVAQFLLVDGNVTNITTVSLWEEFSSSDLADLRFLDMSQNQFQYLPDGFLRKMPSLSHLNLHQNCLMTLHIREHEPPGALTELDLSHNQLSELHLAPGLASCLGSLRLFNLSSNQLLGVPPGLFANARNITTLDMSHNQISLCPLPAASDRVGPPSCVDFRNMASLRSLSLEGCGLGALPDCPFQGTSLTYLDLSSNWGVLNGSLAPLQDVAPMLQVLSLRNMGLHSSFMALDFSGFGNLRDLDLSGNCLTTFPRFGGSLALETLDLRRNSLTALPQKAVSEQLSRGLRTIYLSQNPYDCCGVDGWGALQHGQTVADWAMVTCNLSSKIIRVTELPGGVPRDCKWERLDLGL
T2 sequence (P01137 30-390 limits assumed, chain 2 of 2): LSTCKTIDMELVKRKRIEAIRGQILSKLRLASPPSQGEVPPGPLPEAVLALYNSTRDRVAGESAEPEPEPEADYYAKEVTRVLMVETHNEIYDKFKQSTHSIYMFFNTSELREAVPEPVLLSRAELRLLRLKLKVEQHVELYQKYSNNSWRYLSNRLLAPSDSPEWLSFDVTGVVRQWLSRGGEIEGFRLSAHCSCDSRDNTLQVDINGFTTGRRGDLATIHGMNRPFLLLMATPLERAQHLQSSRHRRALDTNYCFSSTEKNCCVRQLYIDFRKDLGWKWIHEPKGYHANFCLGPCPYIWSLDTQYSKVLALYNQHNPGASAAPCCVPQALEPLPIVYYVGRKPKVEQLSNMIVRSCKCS
Procedure: as §1

[3] = target: T3, mouse LRRC33-proTGFβ1 complex (mouse, UniProt Q8BMT4 20-651, limits assumed); experiment: SPR Biacore 8K, Fab over captured antigen, Rmax fixed
T3 construct: also called MuLRRC33-ProTGFb1; Mu LRRC33-ProTGFβ1
T3 sequence (Q8BMT4 20-651 limits assumed, chain 1 of 2): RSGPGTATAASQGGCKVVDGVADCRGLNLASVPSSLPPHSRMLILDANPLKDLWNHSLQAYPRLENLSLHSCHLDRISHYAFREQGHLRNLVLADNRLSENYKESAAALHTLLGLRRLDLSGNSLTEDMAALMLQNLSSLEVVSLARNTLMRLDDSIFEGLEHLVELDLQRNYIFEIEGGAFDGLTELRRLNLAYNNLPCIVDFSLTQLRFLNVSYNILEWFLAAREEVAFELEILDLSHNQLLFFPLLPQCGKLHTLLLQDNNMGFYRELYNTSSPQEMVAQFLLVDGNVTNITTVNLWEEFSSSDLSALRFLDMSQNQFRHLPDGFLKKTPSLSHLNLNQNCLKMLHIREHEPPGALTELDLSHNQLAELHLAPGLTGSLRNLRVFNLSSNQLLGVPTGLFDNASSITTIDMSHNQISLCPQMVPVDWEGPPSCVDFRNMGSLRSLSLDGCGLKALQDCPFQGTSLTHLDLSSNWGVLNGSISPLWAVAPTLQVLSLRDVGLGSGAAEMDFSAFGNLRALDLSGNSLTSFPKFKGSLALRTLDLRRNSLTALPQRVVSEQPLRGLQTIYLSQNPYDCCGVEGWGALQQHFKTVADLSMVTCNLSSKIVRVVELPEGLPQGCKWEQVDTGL
T3 sequence (chain, as listed by the source limits assumed, chain 2 of 2): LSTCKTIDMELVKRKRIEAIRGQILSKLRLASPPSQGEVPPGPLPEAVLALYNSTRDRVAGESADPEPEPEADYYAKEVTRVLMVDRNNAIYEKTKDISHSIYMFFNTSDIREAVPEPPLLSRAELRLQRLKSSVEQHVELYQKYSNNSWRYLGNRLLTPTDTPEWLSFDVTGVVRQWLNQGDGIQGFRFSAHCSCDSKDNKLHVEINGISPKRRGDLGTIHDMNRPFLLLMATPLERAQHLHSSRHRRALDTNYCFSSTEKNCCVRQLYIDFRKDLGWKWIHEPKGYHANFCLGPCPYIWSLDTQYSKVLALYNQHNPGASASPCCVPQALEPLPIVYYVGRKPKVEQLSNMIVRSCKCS
Procedure: (§2) These experiments were performed using the Biacore 8K using the method “multi-cycle kinetics/affinity using Biotin CAPture kit.”
(§3) Data collection rate was set to 10 Hz and the Biotin CAPture step was performed for 300 seconds with a flow rate of 2 μL/minute. The Biotin CAPture reagent was used after a 1:5 dilution in 1× Biacore running buffer. Biotinylated ligands (the various complexes of TGFβ1) were utilized at a concentration of 10 nM and were immobilized to the sensor chip for 180 seconds with a flow rate of 10 μL/minute. […] Analyte contact time was 120 seconds and the dissociation time was 900 seconds. The regeneration cycle utilized was 120 seconds with a flow rate of 10 μL/minute.
(§4) The evaluation method used was “multi-cycle affinity using capture” and a 1:1 binding model was used. […] Global fits were utilized for every KD determination.

[4] = target: T4, mouse LTBP1-proTGFβ1 complex (mouse, UniProt Q8CG19 339-1712; P04202 30-390); experiment: as above
T4 construct: Exemplary entries; In the cell assays expressed from mouse LTBP1S and mouse proTGFb1 plasmids in LN229 cells; also called Mo LTBP1-proTGFβ1; MuLTBP1-ProTGFb1
T4 sequence (Q8CG19 339-1712 limits assumed, chain 1 of 2): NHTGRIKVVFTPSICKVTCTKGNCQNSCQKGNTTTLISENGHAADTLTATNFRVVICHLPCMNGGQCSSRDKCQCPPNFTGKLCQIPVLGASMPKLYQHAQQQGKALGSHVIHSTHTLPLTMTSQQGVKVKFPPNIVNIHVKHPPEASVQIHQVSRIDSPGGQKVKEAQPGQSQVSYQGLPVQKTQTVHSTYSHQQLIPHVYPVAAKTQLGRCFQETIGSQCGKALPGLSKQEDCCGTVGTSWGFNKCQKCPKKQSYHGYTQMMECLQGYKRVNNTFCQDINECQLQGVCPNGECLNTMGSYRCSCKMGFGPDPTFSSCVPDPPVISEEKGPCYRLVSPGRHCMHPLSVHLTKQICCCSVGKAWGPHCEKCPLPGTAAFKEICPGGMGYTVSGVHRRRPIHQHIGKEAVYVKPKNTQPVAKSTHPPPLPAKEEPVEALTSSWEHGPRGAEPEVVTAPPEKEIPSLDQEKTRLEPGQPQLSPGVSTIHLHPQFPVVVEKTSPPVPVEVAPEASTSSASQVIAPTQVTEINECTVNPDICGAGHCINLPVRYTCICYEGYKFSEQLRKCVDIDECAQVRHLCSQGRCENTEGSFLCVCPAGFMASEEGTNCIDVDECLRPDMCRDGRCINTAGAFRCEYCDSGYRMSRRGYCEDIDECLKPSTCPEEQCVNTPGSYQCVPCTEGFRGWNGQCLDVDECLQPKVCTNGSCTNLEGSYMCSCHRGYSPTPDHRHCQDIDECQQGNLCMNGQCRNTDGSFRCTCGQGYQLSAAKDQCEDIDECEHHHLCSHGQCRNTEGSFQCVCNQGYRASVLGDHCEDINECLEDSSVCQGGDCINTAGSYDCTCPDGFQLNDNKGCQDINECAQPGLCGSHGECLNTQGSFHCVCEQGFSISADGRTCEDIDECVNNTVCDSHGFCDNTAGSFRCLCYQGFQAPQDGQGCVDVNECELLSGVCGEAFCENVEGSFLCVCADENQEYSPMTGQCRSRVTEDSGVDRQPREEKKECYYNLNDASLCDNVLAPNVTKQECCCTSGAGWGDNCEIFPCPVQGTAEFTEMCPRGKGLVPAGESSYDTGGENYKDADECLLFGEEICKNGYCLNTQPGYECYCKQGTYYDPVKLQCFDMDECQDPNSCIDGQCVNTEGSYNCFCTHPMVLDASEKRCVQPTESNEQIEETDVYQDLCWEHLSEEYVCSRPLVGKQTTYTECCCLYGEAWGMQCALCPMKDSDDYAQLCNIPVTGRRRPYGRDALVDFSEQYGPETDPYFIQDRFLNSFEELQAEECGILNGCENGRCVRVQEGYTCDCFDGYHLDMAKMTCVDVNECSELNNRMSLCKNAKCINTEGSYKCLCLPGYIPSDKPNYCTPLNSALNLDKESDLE
T4 sequence (P04202 30-390 limits assumed, chain 2 of 2): as the sequence (chain, as listed by the source limits assumed, chain 2 of 2) above
Procedure: as §2, §3, §4

[5] = target: T1, human GARP-proTGFβ1 complex; experiment: as above
Procedure: as §2, §3, §4

[6] = target: T5, human LTBP1-proTGFβ1 complex (human, UniProt Q14766 347-1721; P01137 30-390); experiment: as above
T5 construct: Large latent complex: one presenting molecule disulfide-linked to a proTGFβ1 dimer; also called Hu LTBP1-proTGFβ1; huLTBP1 proTGFβ1
Procedure: as §2, §3, §4

[7] = target: T2, human LRRC33-proTGFβ1 complex; experiment: as above
Procedure: as §2, §3, §4

[8] = target: T6, mouse LTBP3-proTGFβ1 complex (mouse, UniProt Q61810 41-1245; P04202 30-390, limits assumed); experiment: as above
T6 construct: Exemplary entries; also called Mo LTBP3-proTGFβ1; Murine LTBP3 proTGFb1
Procedure: as §2, §3, §4

[9] = target: T7, mouse GARP-proTGFβ1 complex (mouse, UniProt G3XA59 18-628; P04202 30-390, limits assumed); experiment: as above
T7 construct: Exemplary entries; also called MuGARP-ProTGFb1; Mu GARP-ProTGFβ1
Procedure: as §2, §3, §4

[10] = target: T8, human LTBP3-proTGFβ1 complex (human, UniProt Q9NS15 44-1303; P01137 30-390, limits assumed); experiment: as above
T8 construct: Exemplary entries; also called Hu LTBP3-proTGFβ1; huLTBP3 proTGFb1
T8 sequence (Q9NS15 44-1303 limits assumed, chain 1 of 2): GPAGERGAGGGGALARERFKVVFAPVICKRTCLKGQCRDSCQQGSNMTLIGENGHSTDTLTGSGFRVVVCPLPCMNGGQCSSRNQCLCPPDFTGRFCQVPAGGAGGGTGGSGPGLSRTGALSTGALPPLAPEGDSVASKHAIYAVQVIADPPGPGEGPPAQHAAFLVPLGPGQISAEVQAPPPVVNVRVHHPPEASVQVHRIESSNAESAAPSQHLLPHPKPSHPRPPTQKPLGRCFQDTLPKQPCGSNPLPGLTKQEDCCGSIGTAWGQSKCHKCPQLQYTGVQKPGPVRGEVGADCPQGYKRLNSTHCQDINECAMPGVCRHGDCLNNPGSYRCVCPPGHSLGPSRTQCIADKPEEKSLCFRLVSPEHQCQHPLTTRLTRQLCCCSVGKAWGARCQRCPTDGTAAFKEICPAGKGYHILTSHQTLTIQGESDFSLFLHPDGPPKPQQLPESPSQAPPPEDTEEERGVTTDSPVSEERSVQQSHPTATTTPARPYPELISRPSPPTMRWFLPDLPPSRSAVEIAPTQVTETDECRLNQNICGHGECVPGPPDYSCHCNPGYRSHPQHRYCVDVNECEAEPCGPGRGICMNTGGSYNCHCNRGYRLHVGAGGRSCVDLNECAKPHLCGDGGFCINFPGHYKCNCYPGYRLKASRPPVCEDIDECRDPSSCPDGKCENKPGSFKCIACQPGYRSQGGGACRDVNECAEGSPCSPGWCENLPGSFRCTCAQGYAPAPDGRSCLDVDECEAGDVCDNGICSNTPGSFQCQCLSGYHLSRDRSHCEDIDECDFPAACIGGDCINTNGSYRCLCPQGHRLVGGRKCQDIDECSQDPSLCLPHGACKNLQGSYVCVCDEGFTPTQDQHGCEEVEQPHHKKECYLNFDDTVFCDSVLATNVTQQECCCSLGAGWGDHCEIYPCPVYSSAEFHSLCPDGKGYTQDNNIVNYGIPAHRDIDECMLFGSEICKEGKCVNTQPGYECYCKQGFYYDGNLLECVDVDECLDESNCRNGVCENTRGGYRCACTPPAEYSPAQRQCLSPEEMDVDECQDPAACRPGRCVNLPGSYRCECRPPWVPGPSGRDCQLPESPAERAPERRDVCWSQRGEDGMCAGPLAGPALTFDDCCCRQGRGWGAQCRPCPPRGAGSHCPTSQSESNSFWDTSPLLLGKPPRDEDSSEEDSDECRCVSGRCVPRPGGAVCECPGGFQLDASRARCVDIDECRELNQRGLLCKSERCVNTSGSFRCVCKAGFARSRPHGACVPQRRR
T8 sequence (P01137 30-390 limits assumed, chain 2 of 2): as the sequence (P01137 30-390 limits assumed, chain 2 of 2) above
Procedure: as §2, §3, §4

[11] = target: T3, mouse LRRC33-proTGFβ1 complex; experiment: SPR Biacore 8K, monovalent Fab
Procedure: as §3, §4
(§5) The monovalent half-binding-time (T^{1/2}) value was at least 45 minutes for each of hLTBP1-proTGFβ1 and hLTBP3-proTGFβ1 complexes. The monovalent T^{1/2} value was less than 5 minutes for each of hGARP-proTGFβ1 and hLRRC33-proTGFβ1 complexes, as measured by SPR.

[12] = target: T4, mouse LTBP1-proTGFβ1 complex; experiment: SPR Biacore 8K, monovalent Fab
Procedure: as §3, §4, §5

[13] = target: T1, human GARP-proTGFβ1 complex; experiment: SPR Biacore 8K, monovalent Fab
Procedure: as §3, §4, §5

[14] = target: T5, human LTBP1-proTGFβ1 complex; experiment: SPR Biacore 8K, monovalent Fab
Procedure: as §3, §4, §5

[15] = target: T2, human LRRC33-proTGFβ1 complex; experiment: SPR Biacore 8K, monovalent Fab
Procedure: as §3, §4, §5

[16] = target: T6, mouse LTBP3-proTGFβ1 complex; experiment: SPR Biacore 8K, monovalent Fab
Procedure: as §3, §4, §5

[17] = target: T7, mouse GARP-proTGFβ1 complex; experiment: SPR Biacore 8K, monovalent Fab
Procedure: as §3, §4, §5

[18] = target: T8, human LTBP3-proTGFβ1 complex; experiment: SPR Biacore 8K, monovalent Fab
Procedure: as §3, §4, §5

[19] = target: T5, human LTBP1-proTGFβ1 complex; experiment: SPR Biacore 8K, Fab over captured antigen; mean of 5
Procedure: as §1

[20] = target: T8, human LTBP3-proTGFβ1 complex; experiment: SPR Biacore 8K, Fab over captured antigen
Procedure: as §1

[21] = target: T6, mouse LTBP3-proTGFβ1 complex; experiment: SPR Biacore 8K, Fab over captured antigen; mean of 2
Procedure: as §1

[22] = target: T4, mouse LTBP1-proTGFβ1 complex; experiment: Octet BLI, IgG captured
In short: (§6)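 IgG captured on the Octet biosensor, with complex antigen associating for 3 min and dissociating for 5 min in kinetics buffer. KD was fitted with a 1:1 binding model for each antibody–antigen pair.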

[23] = target: T5, human LTBP1-proTGFβ1 complex; experiment: Octet BLI, IgG captured
In short: as §6

[24] = target: T6, mouse LTBP3-proTGFβ1 complex; experiment: Octet BLI, IgG captured
In short: as §6

[25] = target: T8, human LTBP3-proTGFβ1 complex; experiment: Octet BLI, IgG captured
In short: as §6

[26] = target: T1, human GARP-proTGFβ1 complex; experiment: Octet BLI (N.B. = non-binder under conditions of this assay)
Procedure: Binding affinities of the optimized antibodies were measured by Octet against human LTBP1-proTGFβ1, human LTBP3-proTGFβ1, mouse LTBP1-proTGFβ1, mouse LTBP3-proTGFβ1, and GARP-proTGFβ1 complexes, essentially as described in Example 6. […] The antigens were allowed to associate for 3 minutes followed by a 5-minute dissociation. Kinetics buffer (ForteBio®) was used throughout the experiment, and KD was determined using a 1:1 fitting model for each antibody antigen pair.
Table 9 presents the binding profile and affinity data for the indicated LTBP complex-specific antibodies (IgG1-agly) identified from the light chain optimization cycle 3, determined by Octet.

[27] = target: LTBP-proTGFβ1: transfected human proTGFβ1 presented by endogenous LTBP1/3 of LN229 cells (human); experiment: cell-based or functional assay
LTBP-proTGFβ1: transfected human proTGFβ1 presented by endogenous LTBP1/3 of LN229 cells (human), sequence (P01137 30-390): as the sequence (P01137 30-390 limits assumed, chain 2 of 2) above

[28] = target: T4, mouse LTBP1-proTGFβ1 complex; experiment: cell-based or functional assay
[29] = target: T5, human LTBP1-proTGFβ1 complex; experiment: SPR Biacore 8K, Fab over captured antigen; mean of 4
Procedure: as §1

[30] = target: T5, human LTBP1-proTGFβ1 complex; experiment: SPR (Biacore 8K), biotinylated antigen captured, Fab as analyte, 1:1 fit (Example 9); table beside the sensorgrams
Procedure: as §1

[31] = target: T8, human LTBP3-proTGFβ1 complex; experiment: as above
Procedure: as §1

Kd [1]: 38.9 nM
koff [1]: 0.00604 s⁻¹
kon [1]: 155000 M⁻¹ s⁻¹
Kd [2]: 43.6 nM
koff [2]: 0.00353 s⁻¹
kon [2]: 80900 M⁻¹ s⁻¹
Kd [3]: 110 nM
Kd [4]: 0.611 nM
Kd [5]: 145 nM
Kd [6]: 0.381 nM
Kd [7]: 134 nM
Kd [8]: 0.68 nM
Kd [9]: 29.1 nM
Kd [10]: 0.57 nM
Kd [11]: 110 nM
T1/2 Binding [11]: 7.4 min
Kd [12]: 0.6 nM
T1/2 Binding [12]: 66 min
Kd [13]: 144 nM
T1/2 Binding [13]: 1.9 min
T1/2 Binding [14]: 102 min
Kd [15]: 134 nM
T1/2 Binding [15]: 4.3 min
Kd [16]: 0.68 nM
T1/2 Binding [16]: 72 min
Kd [17]: 29 nM
T1/2 Binding [17]: 5.1 min
Kd [18]: 0.57 nM
T1/2 Binding [18]: 102 min
Kd [19]: 0.194 nM
koff [19]: 0.000105 s⁻¹
kon [19]: 543000 M⁻¹ s⁻¹
Kd [20]: 0.35 nM
koff [20]: 0.000142 s⁻¹
kon [20]: 405000 M⁻¹ s⁻¹
Kd [21]: 2.66 nM
B1: SR-AB42-HuFab (Fab, V domains shown)
VH: QVQLVESGGGVVQPGRSLRLSCAASGFTFRSYVMHWVRQAPGKGLEWVAVISHEGSLKYYADSVKGRFTISRDNSKNTLYLQMNSLRAEDTAVYYCARPRIAARRGGFGYWGQGTLVTVSS
VL: NFMLTQPHSVSESPGKTVTISCTRSSGNIDNNYVQWYQQRPGSSPTTVIYEDNQRPSGVPDRFSGSIDSSSNSASLTISGLKTEDEADYYCQSYDYDTQGVVFGGGTKLTVL
notes: Human Fab; also called SR-AB42 Fab; LTBP-SR-AB42 HuFab

Kd [22]: 0.731 nM
Kd [23]: 0.649 nM
koff [23]: 0.000159 s⁻¹
kon [23]: 244000 M⁻¹ s⁻¹
Kd [24]: 0.891 nM
Kd [25]: 0.178 nM
koff [25]: 6e-05 s⁻¹
kon [25]: 337000 M⁻¹ s⁻¹
binding result [26]: no binding (tested: antigen 100 nM)
IC50, endogenous hLTBP assay (CAGA12 luciferase) [27]: 1.76 nM
IC50, mLTBP1 assay (CAGA12 luciferase) [28]: 0.319 nM
B2: SR-AB43 (antibody, IgG1, V domains shown)
VH: QVQLVESGGGVVQPGRSLRLSCAASGFTFRSYVMHWVRQAPGKGLEWVAVISHEGSLKYYADSVKGRFTISRDNSKNTLYLQMNSLRAEDTAVYYCARPRIAARRGGFGYWGQGTLVTVSS
VL: NFMLTQPHSVSESPGKTVTISCTRSSGNIDYNYVQWYQQRPGSSPTTVIYEDNVRPSGVPDRFSGSIDSSSNSASLTISGLKTEDEADYYCQSYDSDNQRVVFGGGTKLTVL
notes: Cycle 3, lineage SR-AB23

Kd [1]: 349 nM
koff [1]: 0.00093 s⁻¹
kon [1]: 2660 M⁻¹ s⁻¹
Kd [2]: 216 nM
koff [2]: 0.00108 s⁻¹
kon [2]: 5000 M⁻¹ s⁻¹
Kd [29]: 0.000103 nM
koff [29]: 3.82e-08 s⁻¹
kon [29]: 371000 M⁻¹ s⁻¹
Kd [20]: 0.127 nM
koff [20]: 4.99e-05 s⁻¹
kon [20]: 394000 M⁻¹ s⁻¹
Kd [30]: 0.03 nM
Kd [31]: 0.1 nM
B3: SR-AB63-HuFab (Fab, V domains shown)
VH: QLQLQESGPGLVKPSETLSLTCTVSGGSIRSSSYYWGWIRQPPGKGLEWIGSISYSATTYYNPSLKSRVTISVDTSKNQFSLKLSSVTAADTAVYYCAGDPSYDSIAGMQVWGQGTTVTVSS
VL: DIQLTQSPSSLSASVGDRVTITCRASQSISSYLNWYQQKPGKAPKLLIYAASNLQSGVPSRFSGSGSGTDFTLTISSLQPEDFATYYCQQSFDWPLTFGGGTKVEIK
notes: Human Fab
